{"source": "FireProtDB (doi:10.1002/prot.1088)", "parents": {"B1": {"name": "Lysozyme C, P61626 (parent)", "chain": "MKALIVLGLVLLSVTVQGKVFERCELARTLKRLGMDGYRGISLANWMCLAKWESGYNTRATNYNAGDRSTDYGIFQINSRYWCNDGKTPGAVNACHLSCSALLQDNIADAVACAKRVVRDPQGIRAWVAWRNRCQNRDVRQYVQGCGV"}}, "note": "Values joined by “and” are separate entries in the source; they are usually repeats but may differ in a detail not shown here. Identical values can stand only once.", "data": [{"variants_of": "B1", "settings": "Homo sapiens; pH 2.51; Thermal; DSC; Gly-HCl 0.05 M; reversible: yes; structure 1LZ1; whole UniProt chain shown", "units": {"Tm": "°C", "unfolding enthalpy (calorimetric)": "kcal/mol", "unfolding enthalpy (van 't Hoff)": "kcal/mol"}, "values": [{"variant": "N136A", "Tm": 62.1, "unfolding enthalpy (calorimetric)": 99.9, "unfolding enthalpy (van 't Hoff)": 106}, {"variant": "R39A", "Tm": 66.1, "unfolding enthalpy (calorimetric)": 98.7, "unfolding enthalpy (van 't Hoff)": 107}]}, {"variants_of": "B1", "settings": "Homo sapiens; pH 2.7; 64.9 °C; Thermal; DSC; Gly-HCl 0.05 M; reversible: yes; structure 1LZ1; whole UniProt chain shown", "units": {"ddG of mutation (higher = less stable)": "kcal/mol"}, "values": [{"variant": "N136A", "ddG of mutation (higher = less stable)": -0.19}, {"variant": "N136G", "ddG of mutation (higher = less stable)": -0.05}, {"variant": "H96A", "ddG of mutation (higher = less stable)": 0.14}, {"variant": "Y56A", "ddG of mutation (higher = less stable)": 2.49}]}, {"variants_of": "B1", "settings": "Homo sapiens; pH 2.7; Thermal; DSC; Gly-HCl 0.05 M; reversible: yes; structure 1LZ1; whole UniProt chain shown", "units": {"change of melting temperature, mutant - wild type (higher = more stable)": "°C", "heat capacity change of unfolding": "kcal/mol/K", "unfolding enthalpy (calorimetric)": "kcal/mol", "unfolding enthalpy (van 't Hoff)": "kcal/mol"}, "values": [{"variant": "N136A", "Tm": "65.5 °C", "change of melting temperature, mutant - wild type (higher = more stable)": 0.6, "heat capacity change of unfolding": 1.24, "unfolding enthalpy (calorimetric)": 104}, {"variant": "N136G", "Tm": "65.1 °C", "change of melting temperature, mutant - wild type (higher = more stable)": 0.2, "heat capacity change of unfolding": 1.65, "unfolding enthalpy (calorimetric)": 101}, {"variant": "H96A", "Tm": "64.3 °C and 64.4 °C", "change of melting temperature, mutant - wild type (higher = more stable)": -0.5, "heat capacity change of unfolding": 1.51, "unfolding enthalpy (calorimetric)": 103, "unfolding enthalpy (van 't Hoff)": 112}, {"variant": "Y56A", "Tm": "56 °C", "change of melting temperature, mutant - wild type (higher = more stable)": -8.9, "heat capacity change of unfolding": 0.98, "unfolding enthalpy (calorimetric)": 96.8}, {"variant": "R39A", "Tm": "69.4 °C", "change of melting temperature, mutant - wild type (higher = more stable)": 4.5, "heat capacity change of unfolding": 1.82, "unfolding enthalpy (calorimetric)": 96.6}]}, {"variants_of": "B1", "settings": "Homo sapiens; pH 2.74; Thermal; DSC; Gly-HCl 0.05 M; reversible: yes; structure 1LZ1; whole UniProt chain shown", "units": {"Tm": "°C", "unfolding enthalpy (calorimetric)": "kcal/mol", "unfolding enthalpy (van 't Hoff)": "kcal/mol"}, "values": [{"variant": "N136A", "Tm": 66.2, "unfolding enthalpy (calorimetric)": 107, "unfolding enthalpy (van 't Hoff)": 112}, {"variant": "N136G", "Tm": 65.7, "unfolding enthalpy (calorimetric)": 103, "unfolding enthalpy (van 't Hoff)": 110}]}, {"variants_of": "B1", "settings": "Homo sapiens; pH 2.87; Thermal; DSC; Gly-HCl 0.05 M; reversible: yes; structure 1LZ1; whole UniProt chain shown", "units": {"Tm": "°C", "unfolding enthalpy (calorimetric)": "kcal/mol", "unfolding enthalpy (van 't Hoff)": "kcal/mol"}, "values": [{"variant": "N136A", "Tm": 68.6, "unfolding enthalpy (calorimetric)": 109, "unfolding enthalpy (van 't Hoff)": 117}]}, {"variants_of": "B1", "settings": "Homo sapiens; pH 3.02; Thermal; DSC; Gly-HCl 0.05 M; reversible: yes; structure 1LZ1; whole UniProt chain shown", "units": {"Tm": "°C", "unfolding enthalpy (calorimetric)": "kcal/mol", "unfolding enthalpy (van 't Hoff)": "kcal/mol"}, "values": [{"variant": "N136A", "Tm": 70.9, "unfolding enthalpy (calorimetric)": 111, "unfolding enthalpy (van 't Hoff)": 118}]}, {"variants_of": "B1", "settings": "Homo sapiens; pH 2.95; Thermal; DSC; Gly-HCl 0.05 M; reversible: yes; structure 1LZ1; whole UniProt chain shown", "units": {"Tm": "°C", "unfolding enthalpy (calorimetric)": "kcal/mol", "unfolding enthalpy (van 't Hoff)": "kcal/mol"}, "values": [{"variant": "N136G", "Tm": 69.3, "unfolding enthalpy (calorimetric)": 107, "unfolding enthalpy (van 't Hoff)": 115}]}, {"variants_of": "B1", "settings": "Homo sapiens; pH 3.1; Thermal; DSC; Gly-HCl 0.05 M; reversible: yes; structure 1LZ1; whole UniProt chain shown", "units": {"Tm": "°C", "unfolding enthalpy (calorimetric)": "kcal/mol", "unfolding enthalpy (van 't Hoff)": "kcal/mol"}, "values": [{"variant": "N136G", "Tm": 71.6, "unfolding enthalpy (calorimetric)": 113, "unfolding enthalpy (van 't Hoff)": 119}]}, {"variants_of": "B1", "settings": "Homo sapiens; pH 2.5; Thermal; DSC; Gly-HCl 0.05 M; reversible: yes; structure 1LZ1; whole UniProt chain shown", "units": {"Tm": "°C", "unfolding enthalpy (calorimetric)": "kcal/mol", "unfolding enthalpy (van 't Hoff)": "kcal/mol"}, "values": [{"variant": "H96A", "Tm": 61.1, "unfolding enthalpy (calorimetric)": 97.5, "unfolding enthalpy (van 't Hoff)": 107}]}, {"variants_of": "B1", "settings": "Homo sapiens; pH 3; Thermal; DSC; Gly-HCl 0.05 M; reversible: yes; structure 1LZ1; whole UniProt chain shown", "units": {"Tm": "°C", "unfolding enthalpy (calorimetric)": "kcal/mol", "unfolding enthalpy (van 't Hoff)": "kcal/mol"}, "values": [{"variant": "H96A", "Tm": 69.5, "unfolding enthalpy (calorimetric)": 110, "unfolding enthalpy (van 't Hoff)": 117}, {"variant": "Y56A", "Tm": 61.7, "unfolding enthalpy (calorimetric)": 94.4, "unfolding enthalpy (van 't Hoff)": 96.3}]}, {"variants_of": "B1", "settings": "Homo sapiens; pH 2.72; Thermal; DSC; Gly-HCl 0.05 M; reversible: yes; structure 1LZ1; whole UniProt chain shown", "units": {"Tm": "°C", "unfolding enthalpy (calorimetric)": "kcal/mol", "unfolding enthalpy (van 't Hoff)": "kcal/mol"}, "values": [{"variant": "Y56A", "Tm": 56.3, "unfolding enthalpy (calorimetric)": 88, "unfolding enthalpy (van 't Hoff)": 89.2}]}, {"variants_of": "B1", "settings": "Homo sapiens; pH 3.18; Thermal; DSC; Gly-HCl 0.05 M; reversible: yes; structure 1LZ1; whole UniProt chain shown", "units": {"Tm": "°C", "unfolding enthalpy (calorimetric)": "kcal/mol", "unfolding enthalpy (van 't Hoff)": "kcal/mol"}, "values": [{"variant": "Y56A", "Tm": 65, "unfolding enthalpy (calorimetric)": 96.3, "unfolding enthalpy (van 't Hoff)": 97.5}]}, {"variants_of": "B1", "settings": "Homo sapiens; pH 2.71; Thermal; DSC; Gly-HCl 0.05 M; reversible: yes; structure 1LZ1; whole UniProt chain shown", "units": {"Tm": "°C", "unfolding enthalpy (calorimetric)": "kcal/mol", "unfolding enthalpy (van 't Hoff)": "kcal/mol"}, "values": [{"variant": "R39A", "Tm": 69.8, "unfolding enthalpy (calorimetric)": 106, "unfolding enthalpy (van 't Hoff)": 113}]}, {"variants_of": "B1", "settings": "Homo sapiens; pH 3.23; Thermal; DSC; Gly-HCl 0.05 M; reversible: yes; structure 1LZ1; whole UniProt chain shown", "units": {"Tm": "°C", "unfolding enthalpy (calorimetric)": "kcal/mol", "unfolding enthalpy (van 't Hoff)": "kcal/mol"}, "values": [{"variant": "R39A", "Tm": 77.6, "unfolding enthalpy (calorimetric)": 120, "unfolding enthalpy (van 't Hoff)": 129}]}]}
